Drawing on patent publication US20220135679A1 (GREEN CROSS, published 2022), this text covers Kd for one molecule.

Broadly, the Kd is a measure of binding affinity in units of concentration.

This test has as its target T1, recombinant human GPNMB (human, UniProt Q14956 23-498).
T1 construct: also called GPNMB purified from HEK293 cells; GPNMB antigen
T1 sequence: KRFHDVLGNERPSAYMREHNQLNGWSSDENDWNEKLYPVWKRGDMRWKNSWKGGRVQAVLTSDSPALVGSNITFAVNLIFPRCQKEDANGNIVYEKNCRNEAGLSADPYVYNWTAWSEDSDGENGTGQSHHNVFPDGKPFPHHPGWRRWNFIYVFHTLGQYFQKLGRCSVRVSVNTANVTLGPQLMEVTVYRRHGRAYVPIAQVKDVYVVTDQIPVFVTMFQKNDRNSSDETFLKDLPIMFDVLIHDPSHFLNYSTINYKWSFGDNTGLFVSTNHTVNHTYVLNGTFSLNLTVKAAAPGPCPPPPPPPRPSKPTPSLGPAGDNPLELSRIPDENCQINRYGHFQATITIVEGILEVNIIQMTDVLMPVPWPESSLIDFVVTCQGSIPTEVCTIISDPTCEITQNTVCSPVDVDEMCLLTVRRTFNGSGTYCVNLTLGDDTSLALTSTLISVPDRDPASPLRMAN
Briefly: SPR, Biacore T-200; GPNMB amine-coupled on CM5 chip, bispecific antibody as analyte at 0.078 to 5 nM. As for the experimental part: Quantitative binding capacity (affinity) of the purified bispecific antibody to recombinant human GPNMB was measured using Biacore T-200 (GE Healthcare, USA) that is a biosensor. GPNMB purified from HEK293 cells was fixed on a CM5 chip (GE Healthcare) using an amine-carboxyl reaction until 200 Rmax was obtained. Next, the GPNMB/CD3 bispecific antibody, which was serially diluted in HBS-EP buffer (10 mM HEPES, pH 7.4, 150 mM NaCl, 3 mM EDTA, 0.005% Surfactant P20), was allowed to bind thereto in a concentration range of 0.078 nM to 5 nM for 120 seconds, and flowed at a flow rate of 30 μL/min for 1800 seconds so that dissociation was achieved. Dissociation of the antibody bound to GPNMB was induced by flowing 10 mM glycine-HCl (pH 1.5) for 30 seconds at a flow rate of 30 μL/min (Table 2). The affinity was obtained as kinetic rate constants (Kₒₙ and Koff) and equilibrium dissociation constant (KD) using Biacore T-200 Evaluation Software (Table 3).
In general terms: Surface plasmon resonance follows binding to a sensor surface in real time, without labels.

B1: GPNMB (SEQ ID NO: 35)/A15 (SEQ ID NO: 36) bispecific antibody (bispecific antibody, human IgG1, lambda, L234A L235A)
chain 1: not shown
chain 2: QAVVTQEPSLTVSPGGTVTLTCRSSTGAVTTSNYANWVQQKPGQAPRGLIGGTNKRAPWTPARFSGSLLGGKAALTLSGAQPEDEAEYYCALWYSNLWVFGGGTKLTVLGQPKANPTVTLFPPSSEELQANKATLVCLISDFYPGAVTVAWKADGSPVKAGVETTKPSKQSNNKYAASSYLSLTPEQWKSHRSYSCQVTHEGSTVEKTVAPTECSGGGSGGGSEGGGSEGGGSEGGGSEGGGSGGGSGEVQLVESGGGLVQPGGSLKLSCAASGFTFNTYAMNWVRQASGKGLEWVGRIRSKYNNYATYYADSVKDRFTISRDDSKNTAYLQMNSLKTEDTAVYYCVRHGNFGNSYVSWFAYWGQGTLVTVSSASTKGPSVFPLAPSSKSTSGGTAALGCLVKDYFPEPVTVSWNSGALTSGVHTFPAVLQSSGLYSLSSVVTVPSSSLGTQTYICNVNHKPSNTKVDKKVEPKSCDKTHTCPPCPAPEAAGGPSVFLFPPKPKDTLMISRTPEVTCVVVDVSHEDPEVKFNWYVDGVEVHNAKTKPREEQYNSTYRVVSVLTVLHQDWLNGKEYKCKVSNKALPAPIEKTISKAKGQPREPRVYTLPPCRDELTKNQVSLTCLVKGFYPSDIAVEWESNGQPENNYKTTPPVLVSDGSFTLYSKLTVDKSRWQQGNVFSCSVMHEALHNHYTQKSLSLSPG
notes: Expressed in Expi293F cells, then purified by Protein A and size exclusion; also called anti-GPNMB/anti-CD3 bispecific antibody; GPNMB/CD3 bispecific antibody
For B1, the Kd was 1.1 nM.
